test: soluble fraction after stress (log2 fold change); higher = more stays soluble; pooled small domains, quantitative proteomics; settings: stress: pH 4
Method in brief: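 After pH 4 stress, pooled custom libraries of small protein domains were quantified with high-throughput quantitative proteomics. Aggregation propensity is taken from the fold change in each domain's soluble amount following the acid stress. The scale is log2, where higher values mean more stayed soluble.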

| Sequence | soluble fraction (log2) |
| --- | --- |
| HMRKPLDQSWVPDDDAMKILTNSGIEKEFIKNEIPEFILYWSDKGEISDSWNTKFISQIRRQWAKNQ | -0.465 |
| HMLKIAENIYQRRKEKNITQEELADFMMVTKASVSKWETGQSYPDILLLPKLATFFNVTVDELIGYEPQ | -1.07 |
| HMSNGYVTAKTTVNVRKSASESGERLGVIYQGDKLELVMNQADGWTKVKYKGQTAYVKSEFM | 0.161 |
| HMEIESAHAQVLGVREIAASGATQHWIAFRFSDGHQRELLATPSQADVIFRGQQGVVHFAGDRLTGWIPE | -0.198 |
| HMNLLDYDFFEKMSSKEQEEIVEKVYIDFLNKSTGTNSPFYLKLFEKGKKSYIVNWLNENNF | -1.06 |
| HMGKFMVQVGAFSRINGAEITRTKYDNLGTHKAIIKNLDGMNRVFLTGFLSEDEARDFIASSNLKGAFIIR | -0.0731 |
| HMQQRTVEHVDTAVEALALSIGERAGVDLPYMAHLTGKTQEDLIEDLTGVIFPVPGTEPLRYVTADDYLS | -0.835 |
| HMDTHDVQVPQEGQGLRLDLFLTDHIEGSRSFIQTIIKDGHVILNGKKAKANSRLNEGDYVVWSIPKPE | -0.37 |
| HMVKVEVKPNVLQWVIKRMDNFDRLKDQFPNIDKWINQESQPTLKQLEKLAKMTAVPLGYFFLPNPPEEK | -0.507 |
| HMSTKRGEILEFLKDFSARKGYAPSVREIMQAVGLKSTASVHYHLSELHKAGLITVDGTKNRAISLA | 0.0891 |
| HMSELIDSLTEAVRSAPDAVPLRLHLAELLLADGQRDRAFAQLGQVLAKDPQNARALEMLGVGS | -0.373 |
| HMLKEDSAYELGLRIFDQALNDYGTSFIDLKEDEYKKVLSIYGYSNPRQLIINIGLGNVIPHLLARDITE | -1.17 |
| HMDDVGYLRKRLQQALAQLSDDLRNTYTLFQIGKQSIKQIAAETGASESLVKVRIHRAKQKLQELLADLQ | -0.054 |
| HMIERLVVSPAAGVFTKKMSVENNTRIDVGHVLGHVGETEVRSPFAGILQNYIAVDGERLTAHQPIAWLRS | 0.15 |
| HMGVITVRPPIVVRDFAIALNLKPFQVIGNLMELNKVVSVSSVIEEADARKVAERHGYTLEIRH | -0.133 |
| HMGGPTARQMEVLSLIAQGLPNKRIADELGIAERTVKLHITALLDSLGARNRTHLLVVARERGM | -0.608 |
| HMEMTEDEITKQFDAMEREAKKEIDTGADKRAFMYGVSRTAAGMAGKNPKYARFITDKAKEVIENIAKYK | 0.207 |
| HMTEELLNQRKETMLALLNDPTYVPMKLKELAMLLNLSRDQRDELREVMESLEQDGKVILTKRGKYKIP | -0.255 |
| HMNEFGIPDKKLQDIETRVNSMSLEQLNAARSMLIDEQEALNSSTGSASSGRLKEIAAELSTIQKALIAIA | -0.0513 |

| Sequence | soluble fraction (log2) |
| --- | --- |
| HMVNIEAEVGRRLRQLRARRGLSLRALADLSGLNVNTLSLIENSKTSPSVSTLQQLARSLQVPITTFFESD | 0.142 |
| HMASMEDILAEAKTKFQEGDLFKSVNEGIQGTHKLTLPLRIKESRIVDASGAAVYREGIWATVDK | 0.185 |
| HMGAPAISYSKFLEQVDRKNVASVTIYKDGRIDGVMTSGSRFATESPSDPGLVGDLLKAGVEIRAKPP | 0.144 |
| HMGEGIRIDSTAVVQVGEKMYAYLGGDGFSKEFWTNLPASGELAVTLKFEPIPMDAESLDFYEMPA | 0.154 |
| HMQLTPAQHAILAYAIEHTGGKIEWFPDNIKGGARTKVLEGLFNKALITRDSTDWFVAAEGYDALGR | 0.428 |
| HMDRSQRDQEQAQLIRLVQQAFDDSGQRYGAEKIRITLAEGGIRVSTKRIAAIMQELDLRSI | 0.251 |
| HMSTTGIVKWFNEEKGFGFITQDQGGADVFVHYRAIASEGFKTLAEGQKVSFEVEQGQKGLQAANVQA | -0.948 |
| HMEDVDLFTKAMAALPNRYRDILLLRYSHGYTVEEISDILSMKPENVKKTIQRARKKLGEILEAEG | -0.202 |
| HMKRTRLEEAMDWLREQLNDGPVAYATLKDEAPKAEITLSTLRAAGEALRVDKQKKGVQWGGWTWSLPR | 0.404 |
| HMGYTTSFVVQLKNAVSISFDEIDQNLRKLPGVEDVVIVEEAAMAYLKVDRQHFREEQLAHFEFVRQ | -1.6 |
| HMRQGHLDLLRQIHALPPSTREVVYLRAFGGLSFREIGDVLGRTETWARVTFYRGKEALRKG | -0.275 |
| HMRENAARNRNVNLDIGETLRVDAWSPERRARVQYRGAAWDVELAPNAPATVGEFRIVEVRGNVLVVTP | -0.0451 |
| HMFDMLGDQIKKYRKEKKMSQEELAIPLNVVRQTVSKWENNLSVPDAELLIRLAEVLEISVAELLGT | -0.76 |
| HMLPVYSITEAAERLDIPASTIKWYADRFASYISPSKGKGRKRFTPEDLATLQKIHELSQDHTTEEAEAML | -1.16 |
| HMTYTGTVTGVDEGGLRVRSSTSTENTSNVITKVYTGDTFDVLDTVYNGSAKWYKIGFTYNGTYTYGYVSA | -0.518 |
| HMHSPLLDRYLAEVGWRLRHLSGAQREDILAGLREHIADLESAGVAPEEIVARLGSPESVADAAAGEF | 0.0489 |
| HMTGGMVTYIIEKGEGFFSLERKFGLSENELIKLNPSLKSGLKSEMQINIPKENYDRYVASS | 0.206 |
| HMIVNTTRAPYLLGETEQDAMRLARQAGLVPEIVRQSSAEPAGTVILQSHDFDYRMRRGSVILITVSTGPL | 0.22 |
